Source: article PMC11423973 (2024)

Target: SFTSV Gn head domain (Severe fever with thrombocytopenia …)
Experiment: BLI

B1: c40C10 (human IgG1 antibody with the heavy and light chain variable regions of mAb 40C10) (antibody, V domains shown)
VH: EVQLQQSGAELVKPGASVKLSCKASGYTFTSHYMYWVKQRPGQGPEWIGEINPTNGGTKFNEKFKSKATLTVDKSSSTAYIQLSSLTSEDSAVYYCSSSGYDYDGRAYFDYWGQGTTLTVSS
VL: DVVMTQTPKFLLVSAGDRVTITCKASQSVSNDVAWYQQKPGQSPKLLIYYASYRYTGVPDRFTGSGYGTDFTFTISAVQAEDLAVYFCQQNYNSPYTFGGGTKLEIK
Q: With B1 as the binder, how does the Kd read?
A: 0.582 nM
